According to US20070010432A1, “Heat shock protein 90 activator” (priority 2002, published 2007):
Blank lines part the entries; values can stand above or below the molecule they belong to.

Columns and labels:
Yeast Hsp90 = biological target: T1, Yeast Hsp90 (Saccharomyces cerevisiae, UniProt P02829); test: Malachite green colorimetric ATPase assay, yeast Hsp90; format: biochemical
T1 construct: made in house; host or cells: E. coli
Source text: The activity of enzymes that release inorganic phosphate can be measured using the reaction of the cationic dye, malachite green, with a phosphomolybdate complex to generate a blue-green colour with an absorbance maximum at 610 nm (Cogan, E. B. et al (1999) Anal. Biochem. 271, 29-35; Baykov, A. A. et al (1988) Anal. Biochem. 171, 266-270; Harder, K. W. et al (1994) Biochem. J. 298, 395-401; Maehama, T. et al (2000) Anal. Biochem. 279, 248-250) as described above.
Chemicals are of the highest purity commercially available and all aqueous solutions are made up in AR water. • 1. For the full length Aha1, an assay buffer of 45 mM Tris-HCl pH 7.5, 9 mM KCl, 3 mM MgCl may be used. For the C-and N-terminal domain of Aha1 or the Hch1 homologue, an 20 mM Tris-HCl pH 7.5, 4 mM KCl, 1.2 mM MgCl. An assay buffer of 100 mM Tris-HCl, pH 7.4, 20 mM KCl, 6 mM MgCl2 may also be used. Stored at 4° C. • 2. 0.0812% (w/v) malachite green (Sigma M 9636). Stored at room temperature. • 3. […]

[1] = biological target: Human hsp90 beta protein (human) (UniProt P08238)
[2] = biological target: Hsp90 (species not stated; FIGS. 4 to 6)
Hsp90 = biological target: T2, Hsp90 (Saccharomyces cerevisiae, UniProt P02829); test: Effect of Aha1, Aha1 domains or Hch1 concentration on geldanamycin dependent ATPase activity of Hsp90; format: biochemical; conditions: for Effect on Hsp90 ATPase activity (in words): FIG. 5 and 6, 20 mM Tris pH 7.5, 4 mM KCl, 1.2 mM MgCl2
T2 construct: made in house; host or cells: E. coli (if the yeast protein of the reagent list)
T2 sequence (P02829 whole entry, the tested form may be a part): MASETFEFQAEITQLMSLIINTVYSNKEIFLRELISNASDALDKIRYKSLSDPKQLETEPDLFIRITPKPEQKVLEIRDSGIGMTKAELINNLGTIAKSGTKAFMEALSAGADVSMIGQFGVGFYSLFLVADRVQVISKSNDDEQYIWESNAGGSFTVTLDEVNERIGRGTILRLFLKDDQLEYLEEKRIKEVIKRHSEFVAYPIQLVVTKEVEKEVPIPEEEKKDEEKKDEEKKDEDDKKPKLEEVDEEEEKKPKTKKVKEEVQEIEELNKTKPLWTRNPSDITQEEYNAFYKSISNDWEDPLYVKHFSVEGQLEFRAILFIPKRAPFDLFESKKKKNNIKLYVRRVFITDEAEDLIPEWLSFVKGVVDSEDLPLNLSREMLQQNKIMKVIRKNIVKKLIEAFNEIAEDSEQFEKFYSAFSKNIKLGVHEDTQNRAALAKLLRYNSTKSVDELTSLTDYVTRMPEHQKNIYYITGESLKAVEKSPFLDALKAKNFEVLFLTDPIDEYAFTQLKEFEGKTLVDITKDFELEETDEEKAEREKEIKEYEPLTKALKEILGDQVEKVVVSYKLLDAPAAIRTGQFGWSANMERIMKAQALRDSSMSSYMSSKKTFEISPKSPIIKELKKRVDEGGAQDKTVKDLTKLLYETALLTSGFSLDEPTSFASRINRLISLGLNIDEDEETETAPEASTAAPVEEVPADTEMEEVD
Method: Half activation is shown to be at […] Aha1. 0.2 μM Aha1 was used in a buffer consisting of 45 mM Tris pH 7.5, 9 mM KCl, 3 mM MgCl2.
2 μM Aha1 was used in a buffer consisting of 20 mM Tris pH 7.5, 4 mM KCl, 1.2 mM MgCl2.
Hch1 and truncated Aha1 polypeptides corresponding to the N and C terminal domains of full-length Aha1 were expressed and purified as described above. The N terminal domain polypeptide (nAha1) consisted of 162 aa from the N terminal MVVNNP to GNDIQV. The C terminal domain polypeptide (cAha1) consisted of the remainder of the Aha1 sequence.
(§1) Chemicals are of the highest purity commercially available and all aqueous solutions are made up in AR water. • 1. For the full length Aha1, an assay buffer of 45 mM Tris-HCl pH 7.5, 9 mM KCl, 3 mM MgCl may be used. For the C-and N-terminal domain of Aha1 or the Hch1 homologue, an 20 mM Tris-HCl pH 7.5, 4 mM KCl, 1.2 mM MgCl. An assay buffer of 100 mM Tris-HCl, pH 7.4, 20 mM KCl, 6 mM MgCl2 may also be used. Stored at 4° C. • 2. 0.0812% (w/v) malachite green (Sigma M 9636). Stored at room temperature. • 3. 2.32% (w/v) polyvinyl alcohol USP (Sigma P 1097). Stored at room temperature. The polyvinyl alcohol dissolves in boiling water with difficulty and stirring for 2-3 h is required • 4. 5.72% (w/v) ammonium molybdate in 6M hydrochloric acid. Stored at room temperature. • 5. […] Stored at room temperature. • 6. ATP, disodium salt, special quality (Boehringer Mannheim 519979). Stored at 4° C. • 7. E. coli expressed yeast HSP90 protein, purified >95% (10) and stored at −80° C. as 10 μl aliquots containing 0.5 mg of protein. Assay Protocol

Human Hsp90 = biological target: T3, Human Hsp90 (Homo sapiens, UniProt P08238); test: Stimulation of human HSP90 ATPase activity by Aha1; format: biochemical
T3 construct: made in house; host or cells: E. coli BL21 (DE3) pLysS (stated for Aha1 only)
T3 sequence (P08238 whole entry): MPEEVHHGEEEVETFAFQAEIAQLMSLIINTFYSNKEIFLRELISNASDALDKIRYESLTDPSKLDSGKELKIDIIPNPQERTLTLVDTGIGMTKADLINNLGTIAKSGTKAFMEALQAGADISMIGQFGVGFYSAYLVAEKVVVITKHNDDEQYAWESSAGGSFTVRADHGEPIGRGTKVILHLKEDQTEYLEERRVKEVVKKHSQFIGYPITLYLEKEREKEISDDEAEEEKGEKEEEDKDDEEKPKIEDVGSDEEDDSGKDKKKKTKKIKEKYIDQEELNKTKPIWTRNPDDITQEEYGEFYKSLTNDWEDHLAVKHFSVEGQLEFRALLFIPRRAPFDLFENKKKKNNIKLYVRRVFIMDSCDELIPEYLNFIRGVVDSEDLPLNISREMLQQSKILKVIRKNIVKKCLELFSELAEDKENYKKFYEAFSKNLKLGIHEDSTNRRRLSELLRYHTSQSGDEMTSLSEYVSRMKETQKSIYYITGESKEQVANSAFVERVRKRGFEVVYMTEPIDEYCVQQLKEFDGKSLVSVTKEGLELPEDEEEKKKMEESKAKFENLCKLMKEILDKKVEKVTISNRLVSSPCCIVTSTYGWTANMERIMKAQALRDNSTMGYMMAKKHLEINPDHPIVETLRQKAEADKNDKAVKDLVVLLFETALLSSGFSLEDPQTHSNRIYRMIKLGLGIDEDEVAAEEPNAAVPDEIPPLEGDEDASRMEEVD
Method: Each value is the mean±Sd of n=4 ATP at 0.6 mM.
Each point is the mean±SD of n=4 ATP at 0.6 mM.
as §1, with “E. coli expressed yeast HSP90 protein, purified >95% (10) and stored at −80° C. as 10 μl aliquots containing 0.5 mg of protein. Assay Protocol” left out
Initially, the reagent was a dark brown colour, but after standing at room temperature for about 2 h, this became a golden yellow colour and was ready for use. […]
To stop the incubation, 80 μl of the malachite green reagent was added to each well and the plate shaken again. […] The absorbance at 620 nm was measured using a suitable plate reader (e.g. Victor^2, PerkinElmer Life Sciences). […]

T1 sequence (P02829 whole entry): as the sequence (P02829 whole entry, the tested form may be a part) above

Molecule: C[C@@H]1C[C@H]2O[C@@H]2/C=C\C=C\C(=O)Cc2c(Cl)c(O)cc(O)c2C(=O)O1 [Radicicol, radicicol]
Inhibition of yeast HSP90 ATPase activity (in words) (Yeast Hsp90): potent inhibitors

ATPase activity of human Hsp90 (malachite green assay of inorganic phosphate) [1]: 2 fold
Half maximal activation of Hsp90 (geldanamycin dependent ATPase activity) [2]: < 1 µM
Molecule: Aha1 (YDR214W), full length (from UniProt Q12449)

Molecule: Hch1: homologue of Aha1, expressed and purified like Aha1
Effect on Hsp90 ATPase activity (in words) (Hsp90): activate Hsp90 ATPase activity, but to a lesser extent than the full length Aha1 polypeptide

Molecule: Aha1: Aha1 (YDR214W) protein expressed in E. coli; co-activator stimulating Hsp90 ATPase activity
Increase of the activity of human Hsp90 in the presence of Aha1 (Human Hsp90): approximately 2 fold
Effect on ATPase activity of increasing concentrations of human HSP90 (in words) (Human Hsp90; FIG. 1, ATP 0.6 mM): significantly increase
EC50 (Hsp90; FIG. 4, text of results, read-out: Aha1 concentration for half maximal activation of Hsp90): < 1000 nM

Molecule: C=CCNC1=C2C[C@@H](C)C[C@H](OC)[C@H](O)[C@@H](C)/C=C(\C)[C@H](OC(N)=O)[C@@H](OC)/C=C\C=C(/C)C(=O)NC(=CC1=O)C2=O [17AAG]
Inhibition of yeast HSP90 ATPase activity (in words) (Yeast Hsp90): potent inhibitors

B1: C terminal domain of Aha1: truncated Aha1 polypeptide consisting of the remainder of the Aha1 sequence (protein)
chain: PESQVKSNYTRGNQKSSFTEIKDSASKPKKNALPSSTSTSAPVSSTNKVPQNGSGNSTSIYLEPTFNVPSSELYETFLDKQRILAWTRSAQFFNSGPKLETKEKFELFGGNVISELVSCEKDKKLVFHWKLKDWSAPFNSTIEMTFHESQEFHETKLQVKWTGIPVGEEDRVRANFEEYYVRSIKLTFGFGAVL
Effect on Hsp90 ATPase activity (in words) (Hsp90): little or no effect

B2: N terminal domain of Aha1: truncated Aha1 polypeptide of 162 aa from the N terminal MVVNNP to GNDIQV (protein)
chain: MVVNNPNNWHWVDKNCIGWAKEYFKQKLVGVEAGSVKDKKYAKIKSVSSIEGDCEVNQRKGKVISLFDLKITVLIEGHVDSKDGSALPFEGSINVPEVAFDSEASSYQFDISIFKETSELSEAKPLIRSELLPKLRQIFQQFGKDLLATHGNDIQV
Effect on Hsp90 ATPase activity (in words) (Hsp90): activate Hsp90 ATPase activity, but to a lesser extent than the full length Aha1 polypeptide
